One block for each binder: values may come before it.
Columns and labels:
[1] = biological target: T1, PD-L1 on U2OS cells stably expressing PD-L1 (UniProt Q9NZQ7 19-290, limits assumed); assay: flow cytometry on PD-L1-U2OS cells, competitor biotin PD-1 protein, MFI
T1 construct: whole, on cells; also called PD-L1-U2OS; U2OS PD-L1细胞

hPD-L1(ECD)-mFc = biological target: T2, hPD-L1(ECD)-mFc (human); assay: ELISA, hPD-L1-mFc coated
T2 construct: Human PD-L1 extracellular domain fused to a mouse antibody heavy chain Fc tag; also called hPD-L1-mFc; PD-L1-mFc
T2 sequence (chain, as listed by the source limits assumed): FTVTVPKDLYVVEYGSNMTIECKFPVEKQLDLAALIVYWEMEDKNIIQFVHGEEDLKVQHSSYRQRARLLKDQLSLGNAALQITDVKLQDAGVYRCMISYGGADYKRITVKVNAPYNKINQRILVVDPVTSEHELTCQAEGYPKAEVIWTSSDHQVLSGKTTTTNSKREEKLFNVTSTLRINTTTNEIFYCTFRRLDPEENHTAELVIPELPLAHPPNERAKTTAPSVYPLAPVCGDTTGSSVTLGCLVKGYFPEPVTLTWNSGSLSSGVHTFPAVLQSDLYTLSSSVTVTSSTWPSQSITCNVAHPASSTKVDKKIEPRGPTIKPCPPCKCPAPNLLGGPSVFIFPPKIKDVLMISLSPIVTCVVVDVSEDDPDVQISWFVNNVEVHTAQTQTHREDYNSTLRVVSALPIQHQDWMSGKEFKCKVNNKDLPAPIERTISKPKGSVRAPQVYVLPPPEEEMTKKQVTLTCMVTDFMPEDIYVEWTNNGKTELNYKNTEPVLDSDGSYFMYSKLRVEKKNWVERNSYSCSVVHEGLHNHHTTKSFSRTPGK

[2] = biological target: PD-L1抗原 (PD-L1 antigen coated in detection method 1.2) (human, UniProt Q9NZQ7 19-238, limits assumed); assay: competition ELISA: PD-L1 antigen coated, competitor biotin PD-1-mFc
Chain of PD-L1抗原 (PD-L1 antigen coated in detection method 1.2) (Q9NZQ7 19-238 limits assumed): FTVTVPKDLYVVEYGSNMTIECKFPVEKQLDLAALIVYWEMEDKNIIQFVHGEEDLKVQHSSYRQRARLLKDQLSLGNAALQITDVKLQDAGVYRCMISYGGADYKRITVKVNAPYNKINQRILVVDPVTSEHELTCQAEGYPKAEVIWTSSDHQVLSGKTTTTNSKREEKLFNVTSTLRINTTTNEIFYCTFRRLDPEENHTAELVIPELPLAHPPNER

[3] = biological target: T3, 人PD-L1抗原 (hPD-L1-his, Sino biological 10084-H08H-200) (human, UniProt Q9NZQ7 19-239); assay: SPR (Biacore T200), antibody captured by anti-human antibody on CM5, PD-L1-his as analyte, 1:1 Langmuir fit
T3 construct: Bought analyte of the Biacore assay; also called human PD-L1 antigen
T3 sequence (Q9NZQ7 19-239 limits assumed): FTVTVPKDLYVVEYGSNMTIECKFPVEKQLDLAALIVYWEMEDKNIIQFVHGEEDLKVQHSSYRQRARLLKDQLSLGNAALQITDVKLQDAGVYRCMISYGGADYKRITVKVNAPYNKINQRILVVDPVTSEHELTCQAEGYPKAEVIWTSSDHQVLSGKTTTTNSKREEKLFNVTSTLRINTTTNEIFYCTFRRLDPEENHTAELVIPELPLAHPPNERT

T1 sequence (Q9NZQ7 19-290 limits assumed): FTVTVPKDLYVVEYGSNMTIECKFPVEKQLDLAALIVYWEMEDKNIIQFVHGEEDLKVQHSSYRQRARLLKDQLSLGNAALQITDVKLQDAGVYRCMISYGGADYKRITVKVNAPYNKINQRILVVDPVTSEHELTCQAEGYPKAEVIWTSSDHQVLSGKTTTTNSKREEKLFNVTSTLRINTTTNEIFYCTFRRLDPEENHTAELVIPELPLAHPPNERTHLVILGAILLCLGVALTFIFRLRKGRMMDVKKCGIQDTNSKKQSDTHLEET

B2: hu-Chi1-3.4 (antibody, human IgG1, kappa, V domains shown)
VH: QVQLQESGPGLVKPSQTLSLTCTVSGYSITSDYWNWIRQHPGKGLEYIGYISYTGSTYYNPSLKSRVTISRDTSKNQFSLKLSSVTAADTAVYYCARGEAWDRRTLDYWGQGTLVTVSS
VL: DFQMTQSPSSLSASVGDRVTITCRASQDITNYLNWYQQKPDKAVKLLIYYTSRLHSGVPSRFSGSGSGTDFTLTISSLQPEDFATYYCQQVYTLPWTFGQGTKLEIKR
notes: also called Chi1_VH.1D / Chi1_VL.1C
Kd [3]: 0.799 nM

B4: 嵌合抗体1(Chi1) chimeric antibody 1 (antibody, human IgG1, kappa, V domains shown)
VH: EVQLQESGPGLAKPSQTLSLTCSVTGYSITSDYWNWIRRFPGNKLEYMGYISYTGSTYYNPSLKSRISITRDTSKNQYYLQLKSVTTEDTATYYCARGEAWDRRTLDCWGQGTSVTVSS
VL: DFQMTQTTSSLSASLGDRVTISCRASQDITNYLNWYQQKPDGTVKLLIYYTSRLHSGVPSRFSGSGSGSDYALTISNLEQEDIATYFCQQVYTLPWTFGRGTKLEIKR
notes: expressed in ExpiCHO; also called 母本嵌合抗体
Kd [3]: 0.674 nM
IC50 [1]: 0.195 mg/L
EC50 (hPD-L1(ECD)-mFc): 0.107 mg/L
IC50 [2]: 0.514 mg/L

Other lines, results leading:

IC50 [1]: 0.248 mg/L
EC50 (hPD-L1(ECD)-mFc): 0.145 mg/L
IC50 [2]: 0.462 mg/L
B1: 嵌合抗体2-1(Chi2-1) chimeric antibody 2-1 (antibody, human IgG1, kappa, V domains shown)
VH: QVQLQQPGAELVRPGASVKLSCKASGYSFTFYWMNWVKQRPGQGLEWIGMIHPSDSETRLNQKFKDKATLTVDKSSSTAYMQLSSPTSEDTAVYYCVRNMVWSRQVMDYWGQGTSVTVSS
VL: DVVMTQTPLTLSVTIGQPASISCKSSQSLLDSDGNTYLNWLLQRPGESPKLLLYLVSKLDSGVPDRFTGSGSGTDFTLKIGRVEAADLGVYYCLQSTHFPYTFGGGTKLEIKR
notes: Mouse variable regions joined to human IgG1 and human kappa constant regions

IC50 [1]: 2.17 mg/L
IC50 [2]: 1.44 mg/L
B3: 嵌合抗体Chi2-2 chimeric antibody Chi2-2 (antibody, human IgG1, kappa, V domains shown)
VH: QVQLQQPGAELVRPGASVNLSCKTSGYSFTSYWMNWVKQRPGQGLEWIGMIHPSDSETWLNQKFKDKATLTVDKSSSTVHMQLSSPTSEDSAVFYCVRSMVWTRHVMDYWGQGTSVTVSS
VL: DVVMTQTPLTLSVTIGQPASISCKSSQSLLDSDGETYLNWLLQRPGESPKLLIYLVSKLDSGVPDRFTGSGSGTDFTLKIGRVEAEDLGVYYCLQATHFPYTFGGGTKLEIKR
notes: as for B1

Reference: WO2019109974A1 (dated 2019)
